Source: PMC8800109 (iScience, 2022)
Like-named read-outs stand apart in the source and are kept apart here. Each block holds one molecule with its values, some of them ahead of it.

What was measured:
[1] = target: ustekinumab-YTE/IL12 (human) (UniProt P29460); assay: MST
briakinumab/IL12 (human) [2] = target: briakinumab/IL12 (human) (UniProt P29460); assay: MST
briakinumab-YTE (human) [3] = assay: MST
briakinumab (human) [4] = assay: MST
[5] = target: briakinumab-YTE/IL12 (human) (UniProt P29460); assay: MST
ustekinumab-YTE (human) [6] = assay: SPR
ustekinumab (human) [7] = assay: SPR
briakinumab-YTE (human) [8] = assay: SPR
briakinumab (human) [9] = assay: SPR
ustekinumab/IL12 (human) = ustekinumab/IL12 (human) (UniProt P29460); assay: MST
ustekinumab-YTE (human) [10] = assay: MST
[11] = target: ustekinumab-YTE/IL12 (human) (UniProt P29460); assay: MST; remark: listed apart in the source
briakinumab/IL12 (human) [12] = target: briakinumab/IL12 (human) (UniProt P29460); assay: MST; remark: listed apart in the source
ustekinumab (human) [13] = assay: MST
briakinumab-YTE (human) [14] = assay: MST; remark: listed apart in the source
briakinumab (human) [15] = assay: MST; remark: listed apart in the source
[16] = target: briakinumab-YTE/IL12 (human) (UniProt P29460); assay: MST; remark: listed apart in the source
[17] = target: recombinant form of hFcRn immobilized on the analytical FcRn column (UniProt P55899); assay: analytical hFcRn affinity chromatography
recombinant human IL-12 = recombinant human IL-12 (Homo sapiens, UniProt P29460;P29459); assay: ELISA

elution pH from the hFcRn column [17]: 7.2 pH
Molecule: ustekinumab (antibody)

elution pH from the hFcRn column [17]: 7.9 pH
Molecule: ustekinumab-YTE (antibody)

binding result (recombinant human IL-12): binds
B1: briakinumab (antibody, V domains shown)
VH: QVQLVESGGGVVQPGRSLRLSCAASGFTFSSYGMHWVRQAPGKGLEWVAFIRYDGSNKYYADSVKGRFTISRDNSKNTLYLQMNSLRAEDTAVYYCKTHGSHDNWGQGTMVTVSS
VL: QSVLTQPPSVSGAPGQRVTISCSGSRSNIGSNTVKWYQQLPGTAPKLLIYYNDQRPSGVPDRFSGSKSGTSASLAITGLQAEDEADYYCQSYDRYTHPALLFGTGTKVTVL

Further lines, the molecule ahead of its results:

Molecule: truncated monomeric His-tagged hFcRn (from UniProt P55899 24-365; P61769 21-119) (receptor)
Kd [1]: > 20000 nM | Kd (briakinumab/IL12 (human) [2]): > 10000 nM | Kd (briakinumab-YTE (human) [3]): > 20000 nM | Kd (briakinumab (human) [4]): > 25000 nM | Kd [5]: > 4000 nM | Kd (ustekinumab-YTE (human) [6]): 95.5 nM | Kd (ustekinumab (human) [7]): 653 nM | Kd (briakinumab-YTE (human) [8]): 64 nM | Kd (briakinumab (human) [9]): 545 nM | Kd (ustekinumab/IL12 (human)): 1000 nM | Kd (ustekinumab-YTE (human) [10]): 100 nM | Kd [11]: 78 nM | Kd (briakinumab/IL12 (human) [12]): 533 nM | Kd (ustekinumab (human) [13]): 497 nM | Kd (briakinumab-YTE (human) [14]): 79 nM | Kd (briakinumab (human) [15]): 599 nM | Kd [16]: 98 nM

B2: briakinumab-YTE (antibody, V domains shown)
VH: B1 VH
VL: B1 VL
binding result (recombinant human IL-12): binds
